According to the supplement of paper PMC5998384:

Assays:
HeLa Kyoto [1] = assay: melting temperature (median over replicates), in situ; higher = more thermally stable
HeLa Kyoto [2] = assay: thermal stability score vs G1/S (z-score of summed log2 fold changes over temperatures); higher = more thermally stable than in G1/S
HeLa Kyoto [3] = assay: solubility in G1/S (NP-40 vs SDS abundance) (log2 ratio); higher = more soluble; conditions: cell cycle stage: G1/S
HeLa Kyoto [4] = assay: solubility change mitosis vs G1/S (difference of NP-40 vs SDS log2 ratios) (log2 ratio difference); higher = more soluble in mitosis
[5] = cell cycle stage: early G1 (4.5 h after nocodazole release)
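Wherever melting temperature (median over replicates), in situ is given: HeLa Kyoto cells synchronized by double thymidine or nocodazole block, proteins quantified by TMT10plex mass spectrometry, three independent biological replicates.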
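Wherever solubility change mitosis vs G1/S (difference of NP-40 vs SDS log2 ratios) is given: synchronized HeLa Kyoto cells (double thymidine block for G1/S, nocodazole release for mitosis), protein amounts in NP-40 versus SDS lysates quantified by mass spectrometry, three biological replicates.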
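Wherever solubility in G1/S (NP-40 vs SDS abundance) is given: HeLa Kyoto cells arrested at G1/S by double thymidine block, proteins quantified by TMT10plex mass spectrometry in mild NP-40 versus SDS extracts, three biological replicates.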
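Wherever thermal stability score vs G1/S (z-score of summed log2 fold changes over temperatures) is given: synchronized HeLa Kyoto cells, proteins quantified by TMT10plex mass spectrometry, three biological replicates, mitosis taken 0.5 h after nocodazole release, G1/S directly after double thymidine block.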

| Sequence | melting temperature (HeLa Kyoto [1]; cell cycle stage: G1/S) [°C] | melting temperature (HeLa Kyoto [1]; cell cycle stage: mitosis) [°C] | thermal stability score (HeLa Kyoto [2]; [5]) | thermal stability score (HeLa Kyoto [2]; cell cycle stage: mitosis) | solubility in G1/S (log2) (HeLa Kyoto [3]) | solubility change mitosis (log2) (HeLa Kyoto [4]) |
| --- | --- | --- | --- | --- | --- | --- |
| MAESDWDTVTVLRKKGPTAAQAKSKQAILAAQRRGEDVETSKKWAAGQNKQHSITKNTAKLDRETEELHHDRVTLEVGKVIQQGRQSKGLTQKDLATKINEKPQVIADYESGRAIPNNQVLGKIERAIGLKLRGKDIGKPIEKGPRAK [EDF1] | 55.2 | 52.7 | -4.76 | -6.66 | 0.119 | 0.78 |
| MAESIIIRVQSPDGVKRITATKRETAATFLKKVAKEFGFQNNGFSVYINRNKTGEITASSNKSLNLLKIKHGDLLFLFPSSLAGPSSEMETSVPPGFKVFGAPNVVEDEIDQYLSKQDGKIYRSRDPQLCRHGPLGKCVHCVPLEPFDEDYLNHLEPPVKHMSFHAYIRKLTGGADKGKFVALENISCKIKSGCEGHLPWPNGICTKCQPSAITLNRQKYRHVDNIMFENHTVADRFLDFWRKTGNQHFGYLYGRYTEHKDIPLGIRAEVAAIYEPPQIGTQNSLELLEDPKAEVVDEIAAKLGLRKVGWIFTDLVSEDTRKGTVRYSRNKDTYFLSSEECITAGDFQNKHPNMCRLSPDGHFGSKFVTAVATGGPDNQVHFEGYQVSNQCMALVRDECLLPCKDAPELGYAKESSSEQYVPDVFYKDVDKFGNEITQLARPLPVEYLIIDITTTFPKDPVYTFSISQNPFPIENRDVLGETQDFHSLATYLSQNTSSVFLDTISDFHLLLFLVTNEVMPLQDSISLLLEAVRTRNEELAQTWKRSEQWATIEQLCSTVGGQLPGLHEYGAVGGSTHTATAAMWACQHCTFMNQPGTGHCEMCSLPRT [NPLOC4] | 51.8 | 52 | 0.478 | -0.273 | -0.00908 | -0.119 |
| MAETEALSKLREDFRMQNKSVFILGASGETGRVLLKEILEQGLFSKVTLIGRRKLTFDEEAYKNVNQEVVDFEKLDDYASAFQGHDVGFCCLGTTRGKAGAEGFVRVDRDYVLKSAELAKAGGCKHFNLLSSKGADKSSNFLYLQVKGEVEAKVEELKFDRYSVFRPGVLLCDRQESRPGEWLVRKFFGSLPDSWASGHSVPVVTVVRAMLNNVVRPRDKQMELLENKAIHDLGKAHGSLKP [HTATIP2] | 50.8 | 50.2 | 2.61 | 4.75 | 0.148 | -0.095 |
| MAEVGEDSGARALLALRSAPCSPVLCAAAAAAAFPAAAPPPAPAQPQPPPGPPPPPPPPLPPGAIAGAGSSGGSSGVSGDSAVAGAAPALVAAAAASVRQSPGPALARLEGREFEFLMRQPSVTIGRNSSQGSVDLSMGLSSFISRRHLQLSFQEPHFYLRCLGKNGVFVDGAFQRRGAPALQLPKQCTFRFPSTAIKIQFTSLYHKEEAPASPLRPLYPQISPLKIHIPEPDLRSMVSPVPSPTGTISVPNSCPASPRGAGSSSYRFVQNVTSDLQLAAEFAAKAASEQQADTSGGDSPKDESKPPFSYAQLIVQAISSAQDRQLTLSGIYAHITKHYPYYRTADKGWQNSIRHNLSLNRYFIKVPRSQEEPGKGSFWRIDPASEAKLVEQAFRKRRQRGVSCFRTPFGPLSSRSAPASPTHPGLMSPRSGGLQTPECLSREGSPIPHDPEFGSKLASVPEYRYSQSAPGSPVSAQPVIMAVPPRPSSLVAKPVAYMPASIVTSQQPAGHAIHVVQQAPTVTMVRVVTTSANSANGYILTSQGAAGGSHDAAGAAVLDLGSEARGLEEKPTIAFATIPAAGGVIQTVASQMAPGVPGHTVTILQPATPVTLGQHHLPVRAVTQNGKHAVPTNSLAGNAYALTSPLQLLATQASSSAPVVVTRVCEVGPKEPAAAVAATATTTPATATTASASASSTGEPEVKRSRVEEPSGAVTTPAGVIAAAGPQGPGTGE [FOXK1] | 49.1 | 51 | 2.52 | 2.09 | 0.588 | -0.0982 |
| MAEVSIDQSKLPGVKEVCRDFAVLEDHTLAHSLQEQEIEHHLASNVQRNRLVQHDLQVAKQLQEEDLKAQAQLQKRYKDLEQQDCEIAQEIQEKLAIEAERRRIQEKKDEDIARLLQEKELQEEKKRKKHFPEFPATRAYADSYYYEDGGMKPRVMKEAVSTPSRMAHRDQEWYDAEIARKLQEEELLATQVDMRAAQVAQDEEIARLLMAEEKKAYKKAKEREKSSLDKRKQDPEWKPKTAKAANSKSKESDEPHHSKNERPARPPPPIMTDGEDADYTHFTNQQSSTRHFSKSESSHKGFHYKH [CCDC50] | 57.7 | 55 | -5.07 | -1.65 | 0.334 | 0.182 |
| MAFLRSMWGVLSALGRSGAELCTGCGSRLRSPFSFVYLPRWFSSVLASCPKKPVSSYLRFSKEQLPIFKAQNPDAKTTELIRRIAQRWRELPDSKKKIYQDAYRAEWQVYKEEISRFKEQLTPSQIMSLEKEIMDKHLKRKAMTKKKELTLLGKPKRPRSAYNVYVAERFQEAKGDSPQEKLKTVKENWKNLSDSEKELYIQHAKEDETRYHNEMKSWEEQMIEVGRKDLLRRTIKKQRKYGAEEC [TFAM] | 53.1 | 53 | -1.96 | -1.16 | 0.578 | 0.546 |
| MAFRQALQLAACGLAGGSAAVLFSAVAVGKPRAGGDAEPRPAEPPAWAGGARPGPGVWDPNWDRREPLSLINVRKRNVESGEEELASKLDHYKAKATRHIFLIRHSQYHVDGSLEKDRTLTPLGREQAELTGLRLASLGLKFNKIVHSSMTRAIETTDIISRHLPGVCKVSTDLLREGAPIEPDPPVSHWKPEAVQYYEDGARIEAAFRNYIHRADARQEEDSYEIFICHANVIRYIVCRALQFPPEGWLRLSLNNGSITHLVIRPNGRVALRTLGDTGFMPPDKITRS [PGAM5] | 52.8 | 52.2 | 1.94 | -3.72 | -0.0731 | 0.121 |
| MAFVTRQFMRSVSSSSTASASAKKIIVKHVTVIGGGLMGAGIAQVAAATGHTVVLVDQTEDILAKSKKGIEESLRKVAKKKFAENLKAGDEFVEKTLSTIATSTDAASVVHSTDLVVEAIVENLKVKNELFKRLDKFAAEHTIFASNTSSLQITSIANATTRQDRFAGLHFFNPVPVMKLVEVIKTPMTSQKTFESLVDFSKALGKHPVSCKDTPGFIVNRLLVPYLMEAIRLYERGDASKEDIDTAMKLGAGYPMGPFELLDYVGLDTTKFIVDGWHEMDAENPLHQPSPSLNKLVAENKFGKKTGEGFYKYK [HADH] | 53.4 | 53.7 | -2.07 | -1.2 | 0.267 | 0.00527 |
| MAGAAAESGRELWTFAGSRDPSAPRLAYGYGPGSLRELRAREFSRLAGTVYLDHAGATLFSQSQLESFTSDLMENTYGNPHSQNISSKLTHDTVEQVRYRILAHFHTTAEDYTVIFTAGSTAALKLVAEAFPWVSQGPESSGSRFCYLTDSHTSVVGMRNVTMAINVISTPVRPEDLWSAEERSASASNPDCQLPHLFCYPAQSNFSGVRYPLSWIEEVKSGRLHPVSTPGKWFVLLDAASYVSTSPLDLSAHQADFVPISFYKIFGFPTGLGALLVHNRAAPLLRKTYFGGGTASAYLAGEDFYIPRQSVAQRFEDGTISFLDVIALKHGFDTLERLTGGMENIKQHTFTLAQYTYVALSSLQYPNGAPVVRIYSDSEFSSPEVQGPIINFNVLDDKGNIIGYSQVDKMASLYNIHLRTGCFCNTGACQRHLGISNEMVRKHFQAGHVCGDNMDLIDGQPTGSVRISFGYMSTLDDVQAFLRFIIDTRLHSSGDWPVPQAHADTGETGAPSADSQADVIPAVMGRRSLSPQEDALTGSRVWNNSSTVNAVPVAPPVCDVARTQPTPSEKAAGVLEGALGPHVVTNLYLYPIKSCAAFEVTRWPVGNQGLLYDRSWMVVNHNGVCLSQKQEPRLCLIQPFIDLRQRIMVIKAKGMEPIEVPLEENSERTQIRQSRVCADRVSTYDCGEKISSWLSTFFGRPCHLIKQSSNSQRNAKKKHGKDQLPGTMATLSLVNEAQYLLINTSSILELHRQLNTSDENGKEELFSLKDLSLRFRANIIINGKRAFEEEKWDEISIGSLRFQVLGPCHRCQMICIDQQTGQRNQHVFQKLSESRETKVNFGMYLMHASLDLSSPCFLSVGSQVLPVLKENVEGHDLPASEKHQDVTS [MOCOS] | 53.3 | 53.6 | -1.28 | -1.96 | -0.123 | -0.13 |
| MAGAATQASLESAPRIMRLVAECSRSRARAGELWLPHGTVATPVFMPVGTQATMKGITTEQLDALGCRICLGNTYHLGLRPGPELIQKANGLHGFMNWPHNLLTDSGGFQMVSLVSLSEVTEEGVRFRSPYDGNETLLSPEKSVQIQNALGSDIIMQLDDVVSSTVTGPRVEEAMYRSIRWLDRCIAAHQRPDKQNLFAIIQGGLDADLRATCLEEMTKRDVPGFAIGGLSGGESKSQFWRMVALSTSRLPKDKPRYLMGVGYATDLVVCVALGCDMFDCVFPTRTARFGSALVPTGNLQLRKKVFEKDFGPIDPECTCPTCQKHSRAFLHALLHSDNTAALHHLTVHNIAYQLQLMSAVRTSIVEKRFPDFVRDFMGAMYGDPTLCPTWATDALASVGITLG [QTRT1] | 55.6 | 54.9 | 1.96 | 0.0564 | 0.174 | -0.0923 |
| MAGAGGGNDIQWCFSQVKGAVDDDVAEADIISTVEFNHSGELLATGDKGGRVVIFQQEQENKIQSHSRGEYNVYSTFQSHEPEFDYLKSLEIEEKINKIRWLPQKNAAQFLLSTNDKTIKLWKISERDKRPEGYNLKEEDGRYRDPTTVTTLRVPVFRPMDLMVEASPRRIFANAHTYHINSISINSDYETYLSADDLRINLWHLEITDRSFNIVDIKPANMEELTEVITAAEFHPNSCNTFVYSSSKGTIRLCDMRASALCDRHSKLFEEPEDPSNRSFFSEIISSISDVKFSHSGRYMMTRDYLSVKIWDLNMENRPVETYQVHEYLRSKLCSLYENDCIFDKFECCWNGSDSVVMTGSYNNFFRMFDRNTKRDITLEASRENNKPRTVLKPRKVCASGKRKKDEISVDSLDFNKKILHTAWHPKENIIAVATTNNLYIFQDKVN [PPP2R2A] | 54.7 | 54.2 | -0.543 | -3.42 | -0.0929 | -0.194 |
| MAGAIASRMSFSSLKRKQPKTFTVRIVTMDAEMEFNCEMKWKGKDLFDLVCRTLGLRETWFFGLQYTIKDTVAWLKMDKKVLDHDVSKEEPVTFHFLAKFYPENAEEELVQEITQHLFFLQVKKQILDEKIYCPPEASVLLASYAVQAKYGDYDPSVHKRGFLAQEELLPKRVINLYQMTPEMWEERITAWYAEHRGRARDEAEMEYLKIAQDLEMYGVNYFAIRNKKGTELLLGVDALGLHIYDPENRLTPKISFPWNEIRNISYSDKEFTIKPLDKKIDVFKFNSSKLRVNKLILQLCIGNHDLFMRRRKADSLEVQQMKAQAREEKARKQMERQRLAREKQMREEAERTRDELERRLLQMKEEATMANEALMRSEETADLLAEKAQITEEEAKLLAQKAAEAEQEMQRIKATAIRTEEEKRLMEQKVLEAEVLALKMAEESERRAKEADQLKQDLQEAREAERRAKQKLLEIATKPTYPPMNPIPAPLPPDIPSFNLIGDSLSFDFKDTDMKRLSMEIEKEKVEYMEKSKHLQEQLNELKTEIEALKLKERETALDILHNENSDRGGSSKHNTIKKLTLQSAKSRVAFFEEL [NF2] | 51.6 | 50.7 | 0.0456 | 0.294 | -0.161 | -0.0393 |
